In patent US20240124560A1:

Assays:
Assay in all cases: cell-based or functional assay
[1] = target: HIV-1 Env of NIH-018_Du172.17 (HIV-1)
[2] = target: HIV-1 Env of NIH-101_6540.v4.c1 (HIV-1)
[3] = target: HIV-1 Env of NIH-095_6480.v4.c25 (HIV-1)
[4] = target: HIV-1 Env of NIH-017_Du156.12 (HIV-1)
[5] = target: HIV-1 Env of NAC_DH12 (HIV-1)
[6] = target: HIV-1 Env of NAC_92RW020 (HIV-1)
[7] = target: HIV-1 Env of NIH-097_6811.v7.c18 (HIV-1)
[8] = target: HIV-1 Env of pseudovirus NIH-003_SC422661.8 (HIV-1)
[9] = target: HIV-1 Env of NIH-096_6952.v1.c20 (HIV-1)
[10] = target: HIV-1 Env of NIH-020_ZM197M.PB7 (HIV-1)
[11] = target: HIV-1 Env of NIH-029_HIV-001428.2.42 (HIV-1)
[12] = target: HIV-1 Env of NAC_ADA (HIV-1)
[13] = target: HIV-1 Env of NIH-051_CNE17 (HIV-1)
[14] = target: HIV-1 Env of NIH-073_C3347.c11 (HIV-1)
[15] = target: HIV-1 Env of NIH-014_6244.13.B5.4567 (HIV-1)
[16] = target: HIV-1 Env of pseudovirus NIH-009_1006.11.C3.1601 (HIV-1)
[17] = target: HIV-1 Env of NIH-009_1006.11.C3.1601 (HIV-1)
[18] = target: HIV-1 Env of NIH-005_TRO.11 (HIV-1)
[19] = target: envelope protein of control pseudovirus NAC_VSV
[20] = target: HIV-1 Env of NIH-023_ZM249M.PL1 (HIV-1)
[21] = target: HIV-1 Env of pseudovirus NAC_TRJO.58 (HIV-1)
[22] = target: HIV-1 Env of NIH-057_MS208.A1 (HIV-1)
[23] = target: HIV-1 Env of NAC_YU2 (HIV-1) (UniProt P35961)
[24] = target: HIV-1 Env of pseudovirus NIH-107_T251.18 (HIV-1)
[25] = target: HIV-1 Env of NIH-070_R2184.c04 (HIV-1)
[26] = target: HIV-1 Env of NIH-108_T235.47 (HIV-1)
[27] = target: HIV-1 Env of pseudovirus NIH-091_231965.c01 (clade D) (HIV-1)
[28] = target: HIV-1 Env of pseudovirus NIH-100_6041.v3.c23 (HIV-1)
[29] = target: HIV-1 Env of NIH-078_BJOX015000.11.5 (HIV-1)
[30] = target: HIV-1 Env of pseudovirus NAC_SF162 (HIV-1)
[31] = target: HIV-1 Env of NIH-025_ZM109F.PB4 (HIV-1)
[32] = target: HIV-1 Env of NIH-015_62357.14.D3.4589 (HIV-1)
[33] = target: HIV-1 Env of pseudovirus NIH-035_Ce1176 A3 (HIV-1)
[34] = target: HIV-1 Env of NIH-013_6240.08.TA5.4622 (HIV-1)
[35] = target: HIV-1 Env of pseudovirus NIH-079_BJOX010000.06.2 (HIV-1)
[36] = target: HIV-1 Env of NIH-077_BJOX009000.02.4 (HIV-1)
[37] = target: HIV-1 Env of NIH-063_0330.v4.c3 (HIV-1)
[38] = target: HIV-1 Env of pseudovirus NIH-075_CNE8 (HIV-1)
[39] = target: HIV-1 Env of NIH-116_T263.8 (HIV-1)
[40] = target: HIV-1 Env of NIH-106_T250.4 (HIV-1)
[41] = target: HIV-1 Env of pseudovirus NIH-101_6540.v4.c1 (HIV-1)
[42] = target: HIV-1 Env of NAC_WITO.33 (HIV-1)
[43] = target: HIV-1 Env of pseudovirus NAC_MN (HIV-1) (UniProt P05877)
[44] = target: HIV-1 Env of pseudovirus NIH-021_ZM214M.PL15 (HIV-1)
[45] = target: HIV-1 Env of pseudovirus NIH-030_HIV-0013095.2.11 (HIV-1)
[46] = target: HIV-1 Env of pseudovirus NIH-024_ZM53M.PB12 (HIV-1)

Substance: 4E10 (antibody)
- IC80 neutralization [1]: 0.474 µg/mL
- IC80 neutralization [2]: 36.1 µg/mL
- IC80 neutralization [3]: 3.04 µg/mL
- IC80 neutralization [4]: 0.447 µg/mL
- IC80 neutralization [5]: 4.89 µg/mL
- IC80 neutralization [6]: 9.61 µg/mL
- IC80 neutralization [7]: 17 µg/mL
- neutralization IC50 [8]: 2.78 µg/mL
- IC80 neutralization [9]: 3.5 µg/mL
- IC80 neutralization [10]: 1.08 µg/mL
- IC80 neutralization [11]: 24.7 µg/mL
- IC80 neutralization [12]: 3.34 µg/mL
- IC80 neutralization [13]: 2.23 µg/mL
- IC80 neutralization [14]: 0.137 µg/mL
- IC80 neutralization [15]: 0.373 µg/mL
- neutralization IC50 [16]: 5.66 µg/mL
- IC80 neutralization [17]: 22.7 µg/mL
- IC80 neutralization [18]: 3.08 µg/mL
- IC50 (µg/ml), TZM-bl cell neutralization assay, control pseudovirus [19]: > 50 µg/mL
- IC80 (µg/ml), TZM-bl pseudovirus neutralization [19]: > 50 µg/mL
- IC80 neutralization [20]: 5.77 µg/mL
- neutralization IC50 [21]: 2.97 µg/mL
- IC80 neutralization [22]: 2.86 µg/mL
- IC80 neutralization [23]: > 50 µg/mL
- neutralization IC50 [24]: 0.905 µg/mL
- IC80 neutralization [25]: 0.762 µg/mL
- IC80 neutralization [26]: 1.07 µg/mL
- IC50 (µg/ml), TZM-bl cell neutralization assay, pseudovirus [27]: 13.8 µg/mL
- neutralization IC50 [28]: 5.48 µg/mL
- IC80 neutralization [29]: 0.647 µg/mL
- neutralization IC50 [30]: 1.97 µg/mL
- IC80 neutralization [31]: 3.17 µg/mL
- IC80 neutralization [32]: 11.6 µg/mL
- neutralization IC50 [33]: 1.74 µg/mL
- IC80 neutralization [34]: 40.3 µg/mL
- neutralization IC50 [35]: 0.438 µg/mL
- IC80 neutralization [36]: 1.62 µg/mL
- IC80 neutralization [37]: 4.17 µg/mL
- neutralization IC50 [38]: 0.087 µg/mL
- IC80 neutralization [39]: 0.927 µg/mL
- IC80 neutralization [40]: 3.42 µg/mL
- neutralization IC50 [41]: 5.63 µg/mL
- IC80 neutralization [42]: 1.82 µg/mL
- neutralization IC50 [43]: 0.005 µg/mL
- neutralization IC50 [44]: 5.31 µg/mL
- neutralization IC50 [45]: 0.001 µg/mL
- neutralization IC50 [46]: 10.4 µg/mL

Substance: PGZL1 (antibody)
- IC80 neutralization [1]: 1.6 µg/mL
- IC80 neutralization [2]: > 50 µg/mL
- IC80 neutralization [3]: > 50 µg/mL
- IC80 neutralization [4]: 2.5 µg/mL
- IC80 neutralization [5]: 19 µg/mL
- IC80 neutralization [6]: > 50 µg/mL
- IC80 neutralization [7]: > 50 µg/mL
- neutralization IC50 [8]: 16.8 µg/mL
- IC80 neutralization [9]: 4.7 µg/mL
- IC80 neutralization [10]: 7.66 µg/mL
- IC80 neutralization [11]: > 50 µg/mL
- IC80 neutralization [12]: 21.8 µg/mL
- IC80 neutralization [13]: 48.6 µg/mL
- IC80 neutralization [14]: 0.263 µg/mL
- IC80 neutralization [15]: 5.19 µg/mL
- neutralization IC50 [16]: 24.6 µg/mL
- IC80 neutralization [17]: > 50 µg/mL
- IC80 neutralization [18]: 11.8 µg/mL
- IC50 (µg/ml), TZM-bl cell neutralization assay, control pseudovirus [19]: > 50 µg/mL
- IC80 (µg/ml), TZM-bl pseudovirus neutralization [19]: > 50 µg/mL
- IC80 neutralization [20]: > 50 µg/mL
- neutralization IC50 [21]: > 50 µg/mL
- IC80 neutralization [22]: 45.6 µg/mL
- IC80 neutralization [23]: > 50 µg/mL
- neutralization IC50 [24]: 43 µg/mL
- IC80 neutralization [25]: > 50 µg/mL
- IC80 neutralization [26]: 6.62 µg/mL
- IC50 (µg/ml), TZM-bl cell neutralization assay, pseudovirus [27]: > 50 µg/mL
- neutralization IC50 [28]: > 50 µg/mL
- IC80 neutralization [29]: 10.5 µg/mL
- neutralization IC50 [30]: 12.8 µg/mL
- IC80 neutralization [31]: 29.7 µg/mL
- IC80 neutralization [32]: > 50 µg/mL
- neutralization IC50 [33]: 31.7 µg/mL
- IC80 neutralization [34]: > 50 µg/mL
- neutralization IC50 [35]: 1.66 µg/mL
- IC80 neutralization [36]: 15.8 µg/mL
- IC80 neutralization [37]: > 50 µg/mL
- neutralization IC50 [38]: 0.247 µg/mL
- IC80 neutralization [39]: 8.18 µg/mL
- IC80 neutralization [40]: > 50 µg/mL
- neutralization IC50 [41]: > 50 µg/mL
- IC80 neutralization [42]: 15.1 µg/mL
- neutralization IC50 [43]: 0.023 µg/mL
- neutralization IC50 [44]: 28.7 µg/mL
- neutralization IC50 [45]: 0.008 µg/mL
- neutralization IC50 [46]: > 50 µg/mL

Substance: VRC01 (antibody)
- IC80 neutralization [1]: > 50 µg/mL
- IC80 neutralization [2]: > 50 µg/mL
- IC80 neutralization [3]: 0.054 µg/mL
- IC80 neutralization [4]: 0.23 µg/mL
- IC80 neutralization [5]: 0.898 µg/mL
- IC80 neutralization [6]: 0.811 µg/mL
- IC80 neutralization [7]: 0.558 µg/mL
- neutralization IC50 [8]: 0.124 µg/mL
- IC80 neutralization [9]: 0.097 µg/mL
- IC80 neutralization [10]: 0.682 µg/mL
- IC80 neutralization [11]: 0.068 µg/mL
- IC80 neutralization [12]: 1.31 µg/mL
- IC80 neutralization [13]: 0.904 µg/mL
- IC80 neutralization [14]: 0.254 µg/mL
- IC80 neutralization [15]: 0.193 µg/mL
- neutralization IC50 [16]: 0.145 µg/mL
- IC80 neutralization [17]: 0.571 µg/mL
- IC80 neutralization [18]: 0.912 µg/mL
- IC50 (µg/ml), TZM-bl cell neutralization assay, control pseudovirus [19]: > 50 µg/mL
- IC80 (µg/ml), TZM-bl pseudovirus neutralization [19]: > 50 µg/mL
- IC80 neutralization [20]: 0.197 µg/mL
- neutralization IC50 [21]: 0.057 µg/mL
- IC80 neutralization [22]: 0.252 µg/mL
- IC80 neutralization [23]: 0.69 µg/mL
- neutralization IC50 [24]: 2.02 µg/mL
- IC80 neutralization [25]: 0.413 µg/mL
- IC80 neutralization [26]: 0.084 µg/mL
- IC50 (µg/ml), TZM-bl cell neutralization assay, pseudovirus [27]: 0.183 µg/mL
- neutralization IC50 [28]: 0.023 µg/mL
- IC80 neutralization [29]: 0.242 µg/mL
- neutralization IC50 [30]: 0.262 µg/mL
- IC80 neutralization [31]: 0.296 µg/mL
- IC80 neutralization [32]: 6.95 µg/mL
- neutralization IC50 [33]: 1.25 µg/mL
- IC80 neutralization [34]: 2.62 µg/mL
- neutralization IC50 [35]: 1.77 µg/mL
- IC80 neutralization [36]: 2.34 µg/mL
- IC80 neutralization [37]: 0.13 µg/mL
- neutralization IC50 [38]: 0.126 µg/mL
- IC80 neutralization [39]: 0.505 µg/mL
- IC80 neutralization [40]: > 50 µg/mL
- neutralization IC50 [41]: > 50 µg/mL
- IC80 neutralization [42]: 0.228 µg/mL
- neutralization IC50 [43]: 0.01 µg/mL
- neutralization IC50 [44]: 0.612 µg/mL
- neutralization IC50 [45]: 0.0002 µg/mL
- neutralization IC50 [46]: 0.917 µg/mL
